The term EC50 (read off the curve) denotes the midpoint of the concentration-response curve.

Consider 4 molecules from patent publication US20250375499A1 (FLAGSHIP PIONEERING INNOVATIONS VII, published 2025).

Where two headings read alike, the source gives them in different places.

Sequences and labels used below:
B1: recombinant human TL1A (Acro Bio TLA-H5244), plate bound (ligand)
chain: LKGQEFAPSHQQVYAPLRADGDKPRAHLTVVRQTPTQHFKNQFPALHWEHELGLAFTKNRMNYTNKFLLIPESGDYFIYSQVTFRGMTSECSEIRQAGRPNKPDSITVVITKVTDSYPEPTQLLMGTKSVCEVGSNWFQPIYLGAMFSLQEGDKLMVNVSDISLVDYTKEDKTFFGAFLL
notes: Bought protein; also called hTL1A; Tumor Necrosis Factor Ligand Superfamily Member 15
B2: recombinant human FASL (Acro Bio HAL-H5241) (ligand)
chain: PSPPPEKKELRKVAHLTGKSNSRSMPLEWEDTYGIVLLSGVKYKKGGLVINETGLYFVYSKVYFRGQSCNNLPLSHKVYMRNSKYPQDLVMMEGKMMSYCTTGQMWARSSYLGAVFNLTSADHLYVNVSELSLVNFEESQTFFGLYKL
notes: Bought protein; also called hFASL; FAS Ligand
B4: recombinant human LIGHT (Acro Bio LIT-H5242) (ligand)
chain: LIQERRSHEVNPAAHLTGANSSLTGSGGPLLWETQLGLAFLRGLSYHDGALVVTKAGYYYIYSKVQLGGVGCPLGLASTITHGLYKRTPRYPEELELLVSQQSPCGRATSSSRVWWDSSFLGGVVHLEAGEKVVVRVLDERLVRLRDGTRSYFGAFMV
notes: Bought protein; also called hLIGHT; Tumor Necrosis Factor Ligand Superfamily Member 14

The target of test [1] is T1, TNFR2 ECD-Fc (human, UniProt P20333).
T1 construct: Fc region, C-terminal fusion partner; also called TNFR2 ECD-hFc; Ichor Bio ICH4022
T1 sequence (TNFR2 ECD-Fc fusion chain): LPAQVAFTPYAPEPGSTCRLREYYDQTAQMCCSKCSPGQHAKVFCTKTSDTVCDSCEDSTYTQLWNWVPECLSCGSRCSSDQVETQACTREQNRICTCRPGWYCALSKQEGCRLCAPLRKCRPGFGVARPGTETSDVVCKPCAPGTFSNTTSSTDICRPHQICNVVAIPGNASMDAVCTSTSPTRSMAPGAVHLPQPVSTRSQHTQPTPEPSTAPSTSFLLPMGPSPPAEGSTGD
Kind of test: ELISA: plate coated with recombinant human TL1A (2 µg/mL), Fc-tagged protein titrated 3-fold from 10 nM, anti-human Fc HRP, OD 450 nm background subtracted. The protocol: (§1) Briefly, Maxisorp 384 well plates (Thermo Nunc Cat #P6366-1CS) were coated with 25 μL of 2 μg/mL of recombinant human TNFSF ligands: TNFα (Acro Bio TNA-H5228), TL1A (Acro Bio TLA-H5244), FASL (Acro Bio HAL-H5241), or LIGHT (Acro Bio LIT-H5242) in PBS or were coated with PBS alone overnight at 4° C. The plates were washed 3 times with 0.1% PBS-T and incubated with SuperBlock blocking buffer (Thermo Fisher 37515) for 1 hour at room temperature with shaking at 400 RPM. […] Plates were incubated for 1 hour at room temperature with shaking at 400 RPM. ELISA plates were washed 3 times with 0.1% PBS-T and incubated with an anti-human Fc HRP conjugated secondary antibody (ThermoFisher Scientific Cat #H10307) 1:2000 in 0.1% PBS-T for 1 hour at room temperature with shaking at 400 RPM. The plates were washed 3 times with 0.1% PBS-T and incubated with 20 μL of TMB (ThermoFisher Scientific Cat #34028) per well. The reaction was stopped at 5 minutes by adding 20 μL of Stop Solution (BioFX LSTP-1000-01). […] Blank subtracted ODs were calculated by subtracting the ODs from the blank plate from the readings from each of the ligand plates and data was plotted using PRISM (version 10.0.2).
(In general: An ELISA detects its analyte on a solid surface through an enzyme-linked reagent.)

In test [2] the target is T1, TNFR2 ECD-Fc. In words: ELISA: plate coated with recombinant human FASL (2 µg/mL), Fc-tagged protein titrated 3-fold from 10 nM, anti-human Fc HRP, OD 450 nm background subtracted. The protocol: as §1
Test [3] has as its target B1. Kind of test: ELISA: plate coated with recombinant human TL1A (2 µg/mL), Fc-tagged protein titrated 3-fold from 10 nM, anti-human Fc HRP, OD 450 nm background subtracted. The protocol:
as §1

The target of test [4] is B1. Described as above. The protocol: as §1
This is another data set of the same source.

In test [5] the target is B1. Described as above. The protocol: as §1
The source holds these as a separate data set.

Test [6] has as its target B1. The test is described as above. The protocol:
as §1
This is another data set of the same source.

Test [7] has as its target B4. Kind of test: ELISA: plate coated with recombinant human LIGHT (2 µg/mL), Fc-tagged protein titrated 3-fold from 10 nM, anti-human Fc HRP, OD 450 nm background subtracted. The protocol: as §1
Test [8] has as its target B2. Kind of test: ELISA: plate coated with recombinant human FASL (2 µg/mL), Fc-tagged protein titrated 3-fold from 10 nM, anti-human Fc HRP, OD 450 nm background subtracted. The protocol:
as §1

For test [9], the target named is B2. Described as above. The protocol:
as §1
The source holds these as a separate data set.

Test [10] addresses B2. The description is as above. The protocol:
as §1
This is another data set of the same source.

In test [11] the target is B2. Described as above. The protocol: as §1
This is another data set of the same source.

The target in test [12] is B1. Kind of test: ELISA: plate coated with recombinant human TL1A (2 µg/mL), Fc-tagged protein titrated 3-fold from 10 nM, anti-human Fc HRP, OD 450 nm background subtracted. The protocol: as §1
The source holds these as a separate data set.

Test [13] deals with B2. Kind of test: ELISA: plate coated with recombinant human FASL (2 µg/mL), Fc-tagged protein titrated 3-fold from 10 nM, anti-human Fc HRP, OD 450 nm background subtracted. The protocol: as §1
The source holds these as a separate data set.

Test [14] deals with B4. Kind of test: ELISA: plate coated with recombinant human LIGHT (2 µg/mL), Fc-tagged protein titrated 3-fold from 10 nM, anti-human Fc HRP, OD 450 nm background subtracted. The protocol:
as §1
The source holds these as a separate data set.

Test [15] has as its target B4. The description is as above. The protocol: as §1
The source holds these as a separate data set.

In test [16] the target is B4. Described as above. The protocol:
as §1
This is another data set of the same source.

Test [17] concerns the target B4. The description is as above. The protocol: as §1
This is another data set of the same source.

Test [18] addresses T1, TNFR2 ECD-Fc. The test is described as above. The protocol:
as §1

In the case of B1, the binding result in the test with TNFR2 ECD-Fc [1] is “no binding (tested: 10 nM (LOG[Dose] 1))”.

With B2, the binding result with TNFR2 ECD-Fc [2] was “no binding (tested: 10 nM (LOG[Dose] 1))”.

B3: DcR3-hFc (Fc fusion)
chain: VAETPTYPWRDAETGERLVCAQCPPGTFVQRPCRRDSPTTCGPCPPRHYTQFWNYLERCRYCNVLCGEREEEARACHATHNRACRCRTGFFAHAGFCLEHASCPPGAGVIAPGTPSQNTQCQPCPPGTFSASSSSSEQCQPHRNCTALGLALNVPGSSSHDTLCTSCTGFPLSTRVPGAEECERAVIDFVAFQDISIKRLQRLLQALEAPEGWGPTPRAGRAALQLKLRRRLTELLGAQDGALLVRLLQALRVARMPGLERSVRERFLPVH
notes: also called Acro Bio TNB-H5255; not shown: The hIgG1 Fc at the C-terminus, and any linker, of the vendor reagent Acro Bio TNB-H5255
Consider B3, for which the “EC50 (read off the curve)” value is about 0.1 nM in test [3]; about 0.1 nM in test [4]; about 0.1 nM in [5]; about 0.1 nM in test [6]; about 0.2 nM in test [7]; about 0.1 nM in test [8]. Moreover, the “EC50 (read off the curve)” value is about 0.1 nM in test [9]; about 0.1 nM in [10]; about 0.1 nM in test [11]; about 0.1 nM in test [12]; about 0.1 nM in [13]; about 0.2 nM in test [14]. Further, the “EC50 (read off the curve)” value in test [15], in test [16] and in [17] was about 0.2 nM throughout.

Regarding B4, the binding result in the test with TNFR2 ECD-Fc [18] is “no binding (tested: 10 nM (LOG[Dose] 1))”.
